According to US20230242902A1, “A HIGHLY ERROR-PRONE […] R[…] FOR TARGETED CONTINUOUS EVOLUTION IN VIVO” (The Regents of the University of California, priority 2017, published 2023):

B1: N684D: TP-DNAP1 variant (protein)
chain: MDYKDKALNDLRNVYADFDSLPLDFRQILIKDRATLLQKEDVEKKILERQEDAKKYAEYLKQSEIPERISLPNIKRHKGVSISFEETSEDMVLEPRPFIFDGLNIRCFRRETIFSLKNKILNMVKESSSFKNVSRQSVSFMYFKIFNKGKVIASTKSVNIYEDKIDERLEDLCNNFDDVLKKIIDVTYGYESLFVSETYSYVIFYAKSIYFPQPRCVNNWGNNIPNILTFDSFKLFTANKNNVSCIKQCSRFLWQKDFNTLEEMIEYKNGNICIVTPQLHINDVRDIKSFNDIRLYSESPIKTFSVIDNTITYLFYFKEHLGVIFNITKSRHDRRVTKFSPLSKFSDVKNITVCFDIESYFDPEKESNQVNIPFICCASIIYNKVIGNIVDFEGRDCVAQMIEYVVDICGELNISSVELIAHNGGGYDFHYILSSMYNPAAIKNILIRNNSFISFNFAHDGVKFSVKDSYSFLLCSLANASKAFLNEETFKKTDFPHHDLKTADDLYKVYKEWSSVNTEINHVVEKEKLLITSEHIVNFTKNDKSKTLIEWSKDYCRNDVLVLSKVWLEFKNAVEDIFNCELVDQTMTLAGLSYKLFQANMPFDVELRHPNKEDYFNMREALIGGRCISVNGIYKDVLCLDVKSLYPASMAFYDQPYGSFKRVSSRPKDELGIYYVRVTPNRNDKSNFFPIRSHNKITYNNFEESTYIAWYTNVDIDIGLSEGHNIEYIPFDSYGNIGYSWSKKGKIFEKYIKDVLYKLKIKYEKQNNKVKRNVIKIIMNSLWGKFAQKWVNFEYFIKSEDDIDFESEEAYKIWDTDFMLIKKIKESTYSSKPIQNGVFTLSWARYHMKSIWDAGAKEGAECIYSDTDSIFVHKEHFKKNAKFMLNGLKVPIIGSEVGQLELECEFDKLLCAGKKQYMGFYTYFQDGKPCIKEKKRFKGIPSNYIIPELYAHLLSGADKEAKIQFLKFRREWGSVKGYIENKTVKAT
B2: R692I: TP-DNAP1 variant (protein)
chain: MDYKDKALNDLRNVYADFDSLPLDFRQILIKDRATLLQKEDVEKKILERQEDAKKYAEYLKQSEIPERISLPNIKRHKGVSISFEETSEDMVLEPRPFIFDGLNIRCFRRETIFSLKNKILNMVKESSSFKNVSRQSVSFMYFKIFNKGKVIASTKSVNIYEDKIDERLEDLCNNFDDVLKKIIDVTYGYESLFVSETYSYVIFYAKSIYFPQPRCVNNWGNNIPNILTFDSFKLFTANKNNVSCIKQCSRFLWQKDFNTLEEMIEYKNGNICIVTPQLHINDVRDIKSFNDIRLYSESPIKTFSVIDNTITYLFYFKEHLGVIFNITKSRHDRRVTKFSPLSKFSDVKNITVCFDIESYFDPEKESNQVNIPFICCASIIYNKVIGNIVDFEGRDCVAQMIEYVVDICGELNISSVELIAHNGGGYDFHYILSSMYNPAAIKNILIRNNSFISFNFAHDGVKFSVKDSYSFLLCSLANASKAFLNEETFKKTDFPHHDLKTADDLYKVYKEWSSVNTEINHVVEKEKLLITSEHIVNFTKNDKSKTLIEWSKDYCRNDVLVLSKVWLEFKNAVEDIFNCELVDQTMTLAGLSYKLFQANMPFDVELRHPNKEDYFNMREALIGGRCISVNGIYKDVLCLDVKSLYPASMAFYDQPYGSFKRVSSRPKDELGIYYVRVTPNRNNKSNFFPIISHNKITYNNFEESTYIAWYTNVDIDIGLSEGHNIEYIPFDSYGNIGYSWSKKGKIFEKYIKDVLYKLKIKYEKQNNKVKRNVIKIIMNSLWGKFAQKWVNFEYFIKSEDDIDFESEEAYKIWDTDFMLIKKIKESTYSSKPIQNGVFTLSWARYHMKSIWDAGAKEGAECIYSDTDSIFVHKEHFKKNAKFMLNGLKVPIIGSEVGQLELECEFDKLLCAGKKQYMGFYTYFQDGKPCIKEKKRFKGIPSNYIIPELYAHLLSGADKEAKIQFLKFRREWGSVKGYIENKTVKAT
B3: N687G: TP-DNAP1 variant (protein)
chain: MDYKDKALNDLRNVYADFDSLPLDFRQILIKDRATLLQKEDVEKKILERQEDAKKYAEYLKQSEIPERISLPNIKRHKGVSISFEETSEDMVLEPRPFIFDGLNIRCFRRETIFSLKNKILNMVKESSSFKNVSRQSVSFMYFKIFNKGKVIASTKSVNIYEDKIDERLEDLCNNFDDVLKKIIDVTYGYESLFVSETYSYVIFYAKSIYFPQPRCVNNWGNNIPNILTFDSFKLFTANKNNVSCIKQCSRFLWQKDFNTLEEMIEYKNGNICIVTPQLHINDVRDIKSFNDIRLYSESPIKTFSVIDNTITYLFYFKEHLGVIFNITKSRHDRRVTKFSPLSKFSDVKNITVCFDIESYFDPEKESNQVNIPFICCASIIYNKVIGNIVDFEGRDCVAQMIEYVVDICGELNISSVELIAHNGGGYDFHYILSSMYNPAAIKNILIRNNSFISFNFAHDGVKFSVKDSYSFLLCSLANASKAFLNEETFKKTDFPHHDLKTADDLYKVYKEWSSVNTEINHVVEKEKLLITSEHIVNFTKNDKSKTLIEWSKDYCRNDVLVLSKVWLEFKNAVEDIFNCELVDQTMTLAGLSYKLFQANMPFDVELRHPNKEDYFNMREALIGGRCISVNGIYKDVLCLDVKSLYPASMAFYDQPYGSFKRVSSRPKDELGIYYVRVTPNRNNKSGFFPIRSHNKITYNNFEESTYIAWYTNVDIDIGLSEGHNIEYIPFDSYGNIGYSWSKKGKIFEKYIKDVLYKLKIKYEKQNNKVKRNVIKIIMNSLWGKFAQKWVNFEYFIKSEDDIDFESEEAYKIWDTDFMLIKKIKESTYSSKPIQNGVFTLSWARYHMKSIWDAGAKEGAECIYSDTDSIFVHKEHFKKNAKFMLNGLKVPIIGSEVGQLELECEFDKLLCAGKKQYMGFYTYFQDGKPCIKEKKRFKGIPSNYIIPELYAHLLSGADKEAKIQFLKFRREWGSVKGYIENKTVKAT
B4: R692C: TP-DNAP1 variant (protein)
chain: MDYKDKALNDLRNVYADFDSLPLDFRQILIKDRATLLQKEDVEKKILERQEDAKKYAEYLKQSEIPERISLPNIKRHKGVSISFEETSEDMVLEPRPFIFDGLNIRCFRRETIFSLKNKILNMVKESSSFKNVSRQSVSFMYFKIFNKGKVIASTKSVNIYEDKIDERLEDLCNNFDDVLKKIIDVTYGYESLFVSETYSYVIFYAKSIYFPQPRCVNNWGNNIPNILTFDSFKLFTANKNNVSCIKQCSRFLWQKDFNTLEEMIEYKNGNICIVTPQLHINDVRDIKSFNDIRLYSESPIKTFSVIDNTITYLFYFKEHLGVIFNITKSRHDRRVTKFSPLSKFSDVKNITVCFDIESYFDPEKESNQVNIPFICCASIIYNKVIGNIVDFEGRDCVAQMIEYVVDICGELNISSVELIAHNGGGYDFHYILSSMYNPAAIKNILIRNNSFISFNFAHDGVKFSVKDSYSFLLCSLANASKAFLNEETFKKTDFPHHDLKTADDLYKVYKEWSSVNTEINHVVEKEKLLITSEHIVNFTKNDKSKTLIEWSKDYCRNDVLVLSKVWLEFKNAVEDIFNCELVDQTMTLAGLSYKLFQANMPFDVELRHPNKEDYFNMREALIGGRCISVNGIYKDVLCLDVKSLYPASMAFYDQPYGSFKRVSSRPKDELGIYYVRVTPNRNNKSNFFPICSHNKITYNNFEESTYIAWYTNVDIDIGLSEGHNIEYIPFDSYGNIGYSWSKKGKIFEKYIKDVLYKLKIKYEKQNNKVKRNVIKIIMNSLWGKFAQKWVNFEYFIKSEDDIDFESEEAYKIWDTDFMLIKKIKESTYSSKPIQNGVFTLSWARYHMKSIWDAGAKEGAECIYSDTDSIFVHKEHFKKNAKFMLNGLKVPIIGSEVGQLELECEFDKLLCAGKKQYMGFYTYFQDGKPCIKEKKRFKGIPSNYIIPELYAHLLSGADKEAKIQFLKFRREWGSVKGYIENKTVKAT

What follows are molecules tested on p1 (assay: p1 copy number by p1-encoded mKate2 fluorescence). Conditions: OR-Y24, measured in triplicate.
Type: cell-based, S. cerevisiae
Protocol: A calibration curve was established to correlate p1 copy number, determined via quantitative PCR (qPCR), with fluorescence of p1-encoded mKate2 (Table 1). Five TP-DNAP1 variants representing a wide range of copy numbers were transformed into ORY24 and passaged until w.t. p1 was displaced. The five OR-Y24 strains were grown to saturation, diluted 1:10,000 to mimic p1 fluctuation tests, and grown in triplicate 100 μL cultures and duplicate 40 mL cultures. 100 μL saturated cultures were subject to fluorescence measurement of mKate2 (ex/em=561 nm/620 nm, bandwidth=15 nm) on a flow cytometer (Invitrogen Attune NxT). Whole-cell DNA extracts were prepared from 40 mL cultures and used as templates for qPCR measurement of p1-encoded leu2 (Q180*), as described previously (Ravikumar et al., 2014). p1-encoded LEU2 was PCR amplified with qPCR-Leu2F and qPCR Leu2R; and genomic LEU3 was PCR amplified with qPCR-Leu3F and qPCR-Leu3R using SyBR Green (Fisher Scientific) master mix.
To assay p1 copy number for large-scale p1 fluctuation tests, additional replicates of OR-Y24 strains were grown from the 1:10,000 dilution in triplicate and saturated cultures were subject to fluorescence measurement via flow cytometry. Fluorescence measurements were converted to copy number with the linear calibration curve.
To assay relative p1 copy number for small-scale p1 fluctuation tests, an additional 200 μL culture of OR-Y24 strains were grown from the 1:10,000 dilution. 200 μL saturated cultures were subject to an OD600 measurement and fluorescence measurement of mKate2 (ex/em=588 nm/633 nm), using a microplate reader (TECAN Infinite M200 PRO). A linear relationship was assumed between p1 copy number and OD600-normalized mKate2 fluorescence. Copy numbers were calculated from normalization to a w.t. TP-DNAP1 control.
For a few large-scale p1 fluctuation tests, p1 copy number was assayed by the method of small scale p1 fluctuation tests (i.e. microplate reader measurement). For these experiments, mutant TP-DNAP1 p1 copy numbers were calculated by normalization to a w.t. TP-DNAP1 control. The copy number of this control was assumed to be the average w.t. TP-DNAP1 copy number from all large-scale p1 fluctuation tests that used flow cytometry measurements.
TP-DNAP1 plasmids were isolated from these strains and subject to Sanger sequencing. 210 unique variants were identified and the corresponding plasmids were re-transformed into OR-Y24. Transformed strains were passaged in SC-UH until w.t. p1 was displaced, and subject to p1 copy number measurement in triplicate. Four high copy variants were directly subject to qPCR measurements for validation. To test the suppressor activity of the G410H mutation, which yields increased p1 copy number, this amino acid change was added to several low-activity TP-DNAP1 variants. p1 copy number was similarly assayed for these strains.
B1 was tested, and the “Mean fold-increase over w.t. (p1 copy number)” value (from here on “Mean fold-increase”) was 1.54 fold. In the case of B2, the “Mean fold-increase” value is reported as 1.99 fold. In the case of B3, the “Mean fold-increase” value is reported as 1.65 fold. With B4 the “Mean fold-increase” value was 1.69 fold.
